Experimental findings from paper PMC11871066, “Structure-based discovery of hydrocarbon-stapled paxillin peptides that block FAK scaffolding in cancer” (Nature Communications, 2025) are described below.

Test [1] concerns the target Recombinant FAK FAT protein (fluorescence polarization assay) (human) (UniProt Q05397). Briefly: FP.
For test [2], the target named is Biotinylated AviTag FAK FAT protein (UniProt Q05397). Briefly: SPR. Particulars: left panel, two-site binding model, peptide 200 µM to 49 nM, n = 5, X = olefinic amino acids joined by an i,i + 7 hydrocarbon staple.
Chain of Biotinylated AviTag FAK FAT protein (Q05397 whole entry): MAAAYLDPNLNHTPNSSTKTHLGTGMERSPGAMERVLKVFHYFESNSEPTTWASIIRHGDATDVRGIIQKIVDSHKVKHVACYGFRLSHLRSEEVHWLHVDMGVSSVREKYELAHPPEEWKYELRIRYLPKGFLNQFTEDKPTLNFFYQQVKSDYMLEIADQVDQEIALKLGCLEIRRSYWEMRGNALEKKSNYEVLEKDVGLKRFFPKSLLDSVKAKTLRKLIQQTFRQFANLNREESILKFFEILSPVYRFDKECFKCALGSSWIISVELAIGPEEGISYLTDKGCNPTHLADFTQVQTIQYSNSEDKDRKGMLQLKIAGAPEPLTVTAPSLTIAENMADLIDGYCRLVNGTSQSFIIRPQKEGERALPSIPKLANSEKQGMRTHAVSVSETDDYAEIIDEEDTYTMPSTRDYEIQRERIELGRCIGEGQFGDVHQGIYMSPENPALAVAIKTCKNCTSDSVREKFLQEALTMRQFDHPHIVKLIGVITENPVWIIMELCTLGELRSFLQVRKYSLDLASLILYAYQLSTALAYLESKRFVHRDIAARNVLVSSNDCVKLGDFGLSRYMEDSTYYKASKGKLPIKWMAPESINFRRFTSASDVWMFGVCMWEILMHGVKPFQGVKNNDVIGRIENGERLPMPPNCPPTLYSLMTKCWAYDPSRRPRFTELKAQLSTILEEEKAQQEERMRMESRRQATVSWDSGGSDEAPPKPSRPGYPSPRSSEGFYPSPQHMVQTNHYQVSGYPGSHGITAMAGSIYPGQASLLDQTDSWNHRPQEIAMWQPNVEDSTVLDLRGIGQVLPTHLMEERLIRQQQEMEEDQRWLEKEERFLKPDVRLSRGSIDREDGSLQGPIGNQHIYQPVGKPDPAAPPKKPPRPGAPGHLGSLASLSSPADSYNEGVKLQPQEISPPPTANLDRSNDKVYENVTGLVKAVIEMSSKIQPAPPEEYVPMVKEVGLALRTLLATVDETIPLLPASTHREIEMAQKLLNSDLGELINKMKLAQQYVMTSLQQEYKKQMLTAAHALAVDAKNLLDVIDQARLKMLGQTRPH

A value given as a limit tells only on which side of the number the result lay.

A word on the Ki: it is a measure of affinity in units of concentration, obtained from inhibition or displacement. What is called Kd is the concentration at which binding is half-saturated.

Chain of Recombinant FAK FAT protein (fluorescence polarization assay) (human) (Q05397 whole entry): as above
Chain of Negative control peptide 2014 (1907 with L145E and L152E) (P49023 whole entry L145E/L152E, looked up, tested part not stated): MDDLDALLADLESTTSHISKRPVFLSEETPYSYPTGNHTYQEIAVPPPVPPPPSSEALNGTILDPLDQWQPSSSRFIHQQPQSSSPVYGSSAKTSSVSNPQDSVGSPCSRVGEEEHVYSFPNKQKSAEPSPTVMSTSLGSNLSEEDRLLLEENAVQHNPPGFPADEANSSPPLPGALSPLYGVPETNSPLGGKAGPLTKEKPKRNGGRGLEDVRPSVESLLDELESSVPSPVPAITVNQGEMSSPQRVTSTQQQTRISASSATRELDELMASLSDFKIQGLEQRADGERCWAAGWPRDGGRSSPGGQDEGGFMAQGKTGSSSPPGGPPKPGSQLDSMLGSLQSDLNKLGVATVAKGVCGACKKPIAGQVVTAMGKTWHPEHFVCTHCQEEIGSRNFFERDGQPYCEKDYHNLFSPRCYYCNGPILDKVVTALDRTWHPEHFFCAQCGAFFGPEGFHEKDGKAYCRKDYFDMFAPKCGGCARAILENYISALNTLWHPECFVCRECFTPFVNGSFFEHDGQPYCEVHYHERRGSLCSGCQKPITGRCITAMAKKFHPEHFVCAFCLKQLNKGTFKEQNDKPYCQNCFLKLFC

For “Negative control peptide 2014 (1907 with L145E and L152E) (from UniProt P49023 141-153)”, in test [1], the Ki was greater than 1250 µM. Turning to “Paxillin LD2 peptide (141-…-153) S143X; L150X”, the Kd in test [2] (KD1) turned out to be 0.8 µM; in test [2] (KD2), 8.7 µM.
